Measurements: IntAct's records for PubMed 20937909

B1: Staphylococcal nuclease domain-containing protein 1 (Homo sapiens), Q7KZF4 (parent)
chain: MASSAQSGGSSGGPAVPTVQRGIIKMVLSGCAIIVRGQPRGGPPPERQINLSNIRAGNLARRAAATQPDAKDTPDEPWAFPAREFLRKKLIGKEVCFTIENKTPQGREYGMIYLGKDTNGENIAESLVAEGLATRREGMRANNPEQNRLSECEEQAKAAKKGMWSEGNGSHTIRDLKYTIENPRHFVDSHHQKPVNAIIEHVRDGSVVRALLLPDYYLVTVMLSGIKCPTFRREADGSETPEPFAAEAKFFTESRLLQRDVQIILESCHNQNILGTILHPNGNITELLLKEGFARCVDWSIAVYTRGAEKLRAAERFAKERRLRIWRDYVAPTANLDQKDKQFVAKVMQVLNADAIVVKLNSGDYKTIHLSSIRPPRLEGENTQDKNKKLRPLYDIPYMFEAREFLRKKLIGKKVNVTVDYIRPASPATETVPAFSERTCATVTIGGINIAEALVSKGLATVIRYRQDDDQRSSHYDELLAAEARAIKNGKGLHSKKEVPIHRVADISGDTQKAKQFLPFLQRAGRSEAVVEYVFSGSRLKLYLPKETCLITFLLAGIECPRGARNLPGLVQEGEPFSEEATLFTKELVLQREVEVEVESMDKAGNFIGWLHIDGANLSVLLVEHALSKVHFTAERSSYYKSLLSAEEAAKQKKEKVWAHYEEQPVEEVMPVLEEKERSASYKPVFVTEITDDLHFYVQDVETGTQLEKLMENMRNDIASHPPVEGSYAPRRGEFCIAKFVDGEWYRARVEKVESPAKIHVFYIDYGNREVLPSTRLGTLSPAFSTRVLPAQATEYAFAFIQVPQDDDARTDAVDSVVRDIQNTQCLLNVEHLSAGCPHVTLQFADSKGDVGLGLVKEGLVMVEVRKEKQFQKVITEYLNAQESAKSARLNLWRYGDFRADDADEFGYSR

Variants of: B1
Conditions: with piwl1_human PIWIL1, Q96J94
Sequence of piwl1_human PIWIL1, Q96J94 (Q96J94 whole entry): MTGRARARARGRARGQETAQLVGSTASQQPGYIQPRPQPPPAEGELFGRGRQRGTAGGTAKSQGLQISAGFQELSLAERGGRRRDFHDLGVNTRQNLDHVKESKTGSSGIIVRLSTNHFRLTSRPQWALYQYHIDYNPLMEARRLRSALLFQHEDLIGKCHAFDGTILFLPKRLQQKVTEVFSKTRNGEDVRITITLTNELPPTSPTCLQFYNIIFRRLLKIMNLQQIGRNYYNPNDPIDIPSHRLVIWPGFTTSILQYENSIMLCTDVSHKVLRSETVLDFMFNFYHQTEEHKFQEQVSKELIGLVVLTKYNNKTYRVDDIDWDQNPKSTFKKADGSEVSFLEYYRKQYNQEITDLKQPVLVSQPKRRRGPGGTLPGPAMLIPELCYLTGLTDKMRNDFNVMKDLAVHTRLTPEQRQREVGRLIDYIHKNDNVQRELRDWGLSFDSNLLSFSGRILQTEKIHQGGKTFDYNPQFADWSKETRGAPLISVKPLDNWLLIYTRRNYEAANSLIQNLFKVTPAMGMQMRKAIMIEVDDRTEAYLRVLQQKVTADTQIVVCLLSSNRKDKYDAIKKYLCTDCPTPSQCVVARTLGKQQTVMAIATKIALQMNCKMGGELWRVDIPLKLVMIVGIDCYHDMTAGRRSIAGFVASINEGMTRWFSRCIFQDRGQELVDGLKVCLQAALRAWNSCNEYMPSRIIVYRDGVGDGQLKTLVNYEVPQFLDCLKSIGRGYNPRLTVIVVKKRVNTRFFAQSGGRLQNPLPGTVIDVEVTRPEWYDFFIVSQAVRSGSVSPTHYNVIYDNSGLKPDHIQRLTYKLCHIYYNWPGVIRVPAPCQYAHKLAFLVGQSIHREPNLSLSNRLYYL

Row | Variant | effect of a mutation on the interaction
1 | Y746L | decreasing interaction strength
2 | F740L | decreasing interaction
3 | Y766L | decreasing interaction
4 | Y763L | decreasing interaction
5 | N768Q | decreasing interaction
6 | N768R | disrupting interaction
